According to patent publication US20090280060A1, “PHOTOCHROMIC PROBES” (priority 2004, published 2009):
Like-named read-outs stand apart in the source and are kept apart here. One block for each molecule: values may come before it.

Legend:
[1] = Thermally driven MC to SP transition, decrease of MC absorption in the dark; assay type: physicochemical
Procedure: FIG. 7. (A), Time dependent absorption spectra of the lowest energy transition of the MC state of compound 12 dissolved in ethanol at a concentration of 20 μM at 20° in the dark—the spectra, from top to bottom, were recorded at the following times: a) 0; b), 60 s, c), 120 s; d), 180 s; e), 240 s; f), 360 s; g), 420 s; h), 480 s. The lowermost curve is the absorption spectrum of the non-irradiated SP state. (B), The rate for the thermally driven MC to SP transition was determined by analyzing the log of the maximum absorption value for each spectrum shown in FIG. 7A as a function of time. The reaction rate of […] was calculated using a least squares fitting procedure. (C), Absorption spectra of the MC-G-actin conjugate (compound 9) as a function of time in the dark. Spectra are as follows: a), before irradiation; b), after 30 second irradiation with 365 nm light; c), after 5 minutes in the dark at 20°; d), after 22 minutes in the dark at 20°; e) after irradiation with 546 nm light for 30 seconds
Thermally-driven transitions between MC and SP. The rate for the thermal equilibration of MC to SP in ethanol was measured using the decrease in the maximum MC absorption value as a function of time in the dark (FIGS. 7A,B). […] This rate, however, is too fast for many of the envisioned applications of optical switches in biology. […]

[2] = Absorption maximum of the MC state; assay type: physicochemical
Description: The family of Ca^2+-optical switch described in this invention has built-in design features that can be used to tune the maximum of the action spectrum for the MC-SP transition. The nitro group generates a weakly fluorescent MC state, which can be used to quantify the kinetics of Ca^2+-perturbations and to image the distribution of the MC state within living cells.
The absorption properties of the MC state of the Ca^2+ switch can be tuned using different 1-nitroso-2-naphthol. […] We will investigate the photophysics of optimized Ca^2+ switches based on spironaphthoxazine. We anticipate, based on our observations of the thermally-induced MC to SP transition that the rate of photochemistry for the spironaphthoxazine will be faster that the 11 μs reported for the spirobenzopyran group (Gorner, 2001).

[3] = target: barbed-end of the actin filament; details: Ca^2+-dependent; Southwick & DiNubile, 1986; read-out: kd for binding to the barbed-end of the actin filament; cited from earlier work
[4] = target: T1, G-actin (Oryctolagus cuniculus, UniProt P68135); experiment: CapG binding to Prodan-G-actin (fluorescence); design: Rabbit muscle G-actin is purified according to Marriott (1994); from tissue; host or cells: rabbit muscle; species or system Rabbit
Procedure: (§1) FIG. 20: Caging of CapG (A): Absorption spectra of […] samples of CapG (2), caged CapG (curve 1).
Preparation and characterization of caged CapG: Caged CapG was prepared using a modification of our published method for caging actin and profilin (Marriott, 1994; Marriott et al, 2003). In brief a purified solution of CapG (1 mg/ml) was dialyzed against 20 mM borate buffer, pH 8.5 overnight. The protein was centrifuged and the OD280 nm measured to determine the protein concentration (FIG. 8A). A 0.1 M acetone solution of NVOC-Cl was freshly prepared and added to the CapG with vigorous vortexing to a final concentration of 1 mM. This was usually realized by 2-3 additions over a 5-minute period. After 30 minutes at room temperature in the dark, the protein was centrifuged and dialyzed against 2×500 ml of G-buffer overnight. The absorption spectrum of the protein was recorded using the dialysis buffer as a reference and the amount of NVOC was determined by measuring the A350nm (E350nm=5,000 M^−1cm^−1). The concentration of protein was determined using the Bio-Rad Bradford assay. The introduction of 3-4 NVOC groups was sufficient to inhibit the formation of G-actin-CapG using two independent assays based on sensitivity of Prodan-actin to CapG binding. […]

[5] = target: T1, G-actin; experiment: Prodan-actin polymerization kinetics; assay type: biochemical, Rabbit; design: Rabbit muscle G-actin is purified according to Marriott (1994); from tissue; host or cells: rabbit muscle
Procedure: as §1
Preparation and characterization of caged CapG: Caged CapG was prepared using a modification of our published method for caging actin and profilin (Marriott, 1994; Marriott et al, 2003). In brief a purified solution of CapG (1 mg/ml) was dialyzed against 20 mM borate buffer, pH 8.5 overnight. The protein was centrifuged and the OD280 nm measured to determine the protein concentration (FIG. 8A). A 0.1 M acetone solution of NVOC-Cl was freshly prepared and added to the CapG with vigorous vortexing to a final concentration of 1 mM. This was usually realized by 2-3 additions over a 5-minute period. After 30 minutes at room temperature in the dark, the protein was centrifuged and dialyzed against 2×500 ml of G-buffer overnight. The absorption spectrum of the protein was recorded using the dialysis buffer as a reference and the amount of NVOC was determined by measuring the A350nm (E350nm=5,000 M^−1cm^−1). The concentration of protein was determined using the Bio-Rad Bradford assay. The introduction of 3-4 NVOC groups was sufficient to inhibit the formation of G-actin-CapG using two independent assays based on sensitivity of Prodan-actin to CapG binding. In FIG. 20B, CapG binding to Prodan-G-actin is seen to shift the emission spectrum, from 496 nm to 465 nm, and is accompanied by a 1.5 fold (FIG. 20B, curve 1)—this signal can be used to analyze the effects of CapG on actin polymerization kinetics as shown in FIG. 20C.

thermal reversion to the SP state [1]: within seconds
MC state absorption maximum [2]: about 620 nm
Molecule: CN1c2cc(CBr)ccc2C(C)(C)C12C=Nc1c(ccc3ccccc13)O2 (centres unmarked) [Compound 17, 6′-(Bromomethyl)spironaphthoxazin]

Kd ([4]; data not shown, read-out: kd of complex with G-actin): 100 nM
effect on actin polymerization [5]: inhibits the polymerization of G-actin
B1: CapG: 40 kD, Ca^2+ regulated actin filament barbed-end capping protein, His-tagged, cloned from mouse cDNA library (protein, UniProt P24452 1-352, looked up)
Macrophage-capping protein: MYTPIPQSGSPFPASVQDPGLHIWRVEKLKPVPIARESHGIFFSGDSYLVLHNGPEEASHLHLWIGQQSSRDEQGACAVLAVHLNTLLGERPVQHREVQGNESDLFMSYFPRGLKYYREGGVESAFHKTTSGARGAAIRKLYQVKGKKNIRATERPLSWDSFNTGDCFILDLGQNIFAWCGGKSNILERNKARDLALAIRDSERQGKAQVEIITDGEEPAEMIQVLGPKPALKEGNPEEDITADQTRPNAQAAALYKVSDATGQMNLTKVADSSPFASELLIPDDCFVLDNGLCAQIYIWKGRKANEKERQAALQVADGFISRMRYSPNTQVEILPQGRESPIFKQFFKNWK
modifications: His tag
notes: 40 kD, Ca^2+ regulated actin filament barbed-end capping protein, His-tagged, cloned from mouse cDNA library
Kd [3]: 1000 nM

binding to G-actin ([4]; Prodan-G-actin): binds poorly to G-actin
effect on actin polymerization ([5]; listed as Caged CapG): almost normal polymerization kinetics
B2: caged CapG: CapG labeled with 3-4 NVOC groups using NVOC-Cl (protein, UniProt P24452 1-352, looked up)
Macrophage-capping protein: B1 Macrophage-capping protein
modifications: caged with 3-4 NVOC groups
notes: CapG labeled with 3-4 NVOC groups using NVOC-Cl
effect on actin polymerization [5]: limited effect on the rate of actin polymerization
